Assay results reported in US20260167699A1 (Chugai, published 2026).
Blank lines part the entries; values can stand above or below the binder they belong to.

Key:
FcγRIIIa [1] = target: T1, FcγRIIIa (human, UniProt P08637 17-208); test: SPR (Biacore T100), antibody captured on protein L chip, FcγRIIIa as analyte, TBS(+), 25 C, 1:1 Langmuir fit
T1 construct: extracellular domain; also called 3a
T1 sequence (P08637 other isoform, or with tags, fused parts or gaps): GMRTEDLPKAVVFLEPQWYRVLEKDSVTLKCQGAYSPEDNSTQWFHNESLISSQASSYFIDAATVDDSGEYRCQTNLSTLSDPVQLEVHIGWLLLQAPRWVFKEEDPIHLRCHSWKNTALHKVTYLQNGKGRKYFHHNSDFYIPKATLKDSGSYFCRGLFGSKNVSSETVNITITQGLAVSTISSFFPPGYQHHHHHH
Method: Specifically, their interaction with FcγRIIIa was analyzed using BiaCore™ T100 surface plasmon resonance system (GE Healthcare Japan Corp.). The running buffer used was the TBS(+) solution used in the preceding paragraph. The assay temperature was set to 25° C. Protein L was immobilized onto Series S Sensor Chip CM4 (GE Healthcare Japan Corp.) by the amine coupling method to prepare a chip. Each antibody of interest was captured onto the protein L-immobilized chip and allowed to interact with FcγRIIIa diluted with a running buffer. The antibody captured on the chip was washed off through the reaction of 10 mM glycine-HCl (pH 1.5) to regenerate the chip, which was repetitively used.
Each antibody was evaluated for its binding activity against FcγRIIIa with binding activity against FcγRIIIa and dissociation constant for FcγRIIIa as main indexes. […] Specifically, a sensorgram obtained by assay using BiaCore™ surface plasmon resonance Evaluation Software was globally fit into the 1:1 Langmuir model to calculate an association rate constant ka (L/mol/s) and a dissociation rate constant kd (1/s). From these values, the dissociation constant KD (mol/L) was calculated.

FcγRIIIaV = target: T2, FcγRIIIaV (human, UniProt P08637 17-208); test: SPR (Biacore), antibody captured, FcγR as analyte, 1:1 Langmuir fit
T2 construct: extracellular domain
T2 sequence (P08637 other isoform, or with tags, fused parts or gaps): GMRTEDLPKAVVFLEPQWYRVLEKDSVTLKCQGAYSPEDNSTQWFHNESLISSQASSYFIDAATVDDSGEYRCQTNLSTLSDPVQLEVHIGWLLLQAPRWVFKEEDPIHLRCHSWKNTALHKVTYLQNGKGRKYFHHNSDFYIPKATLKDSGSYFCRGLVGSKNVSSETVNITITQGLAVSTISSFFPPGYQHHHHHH
Method: The antibody of interest was analyzed for its interaction with FcγR using a BiaCore™ T100, BiaCore™ A100, or BiaCore™ 4000 surface plasmon resonance system (GE Healthcare Japan Corp.). The running buffer used was HBS-EP+ (GE Healthcare Japan Corp.). The assay temperature was set to 25° C. The sensor chips used were: a chip prepared by immobilizing antigenic peptides onto Series S Sensor Chip CM5 (GE Healthcare Japan Corp.) by the amine coupling method; a chip prepared by immobilizing antigenic peptides biotinylated in advance onto Series S Sensor Chip SA (certified) (GE Healthcare Japan Corp.) through their interaction; a chip prepared by immobilizing protein L (ACTIGEN, BioVision, Inc.) onto Series S Sensor Chip CM5 (GE Healthcare Japan Corp.); and a chip prepared by immobilizing protein A/G (Thermo Fisher Scientific K.K.) onto Series S Sensor Chip CM5 (GE Healthcare Japan Corp.). The antibody of interest was captured onto any of these chips and allowed to interact with FcγR diluted with a running buffer. The antibody captured on the chip was washed off through the reaction of 10 mM glycine-HCl (pH 1.5) to regenerate the chip, which was repetitively used.

FcγRIIa(R) = target: T3, FcγRIIa(R) (human, UniProt P12318 34-217); test: SPR, relative to GpH7-A5/GpH7-B3/GpL16-k0 =100
T3 construct: extracellular domain; also called 2aR
T3 sequence: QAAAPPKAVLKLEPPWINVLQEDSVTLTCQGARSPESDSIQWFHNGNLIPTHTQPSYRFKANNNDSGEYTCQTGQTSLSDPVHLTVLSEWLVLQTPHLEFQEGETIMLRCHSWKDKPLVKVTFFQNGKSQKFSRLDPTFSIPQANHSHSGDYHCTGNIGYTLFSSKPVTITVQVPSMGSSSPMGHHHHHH

FcγRIIb = target: T4, FcγRIIb (human, UniProt P31994 43-217); test: SPR, relative to GpH7-A5/GpH7-B3/GpL16-k0 =100
T4 construct: extracellular domain; also called 2b
T4 sequence: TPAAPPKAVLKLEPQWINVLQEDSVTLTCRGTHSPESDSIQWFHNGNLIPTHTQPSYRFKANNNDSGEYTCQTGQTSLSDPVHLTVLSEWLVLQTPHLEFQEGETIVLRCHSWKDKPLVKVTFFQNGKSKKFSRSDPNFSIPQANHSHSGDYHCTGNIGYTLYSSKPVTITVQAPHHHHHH

FcγRIIa(H) = target: T5, FcγRIIa(H) (human, UniProt P12318 34-217); test: SPR, relative to GpH7-A5/GpH7-B3/GpL16-k0 =100
T5 construct: extracellular domain; also called 2aH
T5 sequence: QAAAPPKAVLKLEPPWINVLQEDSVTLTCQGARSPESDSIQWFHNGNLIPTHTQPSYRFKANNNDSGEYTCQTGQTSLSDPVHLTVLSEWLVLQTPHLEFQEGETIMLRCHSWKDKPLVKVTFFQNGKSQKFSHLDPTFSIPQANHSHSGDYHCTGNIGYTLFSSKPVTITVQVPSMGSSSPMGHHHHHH

FcγRIIIa [2] = target: T6, FcγRIIIa (human, UniProt P08637 17-208); test: SPR, relative to GpH7-A5/GpH7-B3/GpL16-k0 =100
T6 construct: extracellular domain; also called 3a

FcγRIa = target: T7, FcγRIa (human, UniProt P12314 16-292); test: SPR, relative to GpH7-A5/GpH7-B3/GpL16-k0 =100
T7 construct: extracellular domain; also called 1a
T7 sequence (P12314 other isoform, or with tags, fused parts or gaps): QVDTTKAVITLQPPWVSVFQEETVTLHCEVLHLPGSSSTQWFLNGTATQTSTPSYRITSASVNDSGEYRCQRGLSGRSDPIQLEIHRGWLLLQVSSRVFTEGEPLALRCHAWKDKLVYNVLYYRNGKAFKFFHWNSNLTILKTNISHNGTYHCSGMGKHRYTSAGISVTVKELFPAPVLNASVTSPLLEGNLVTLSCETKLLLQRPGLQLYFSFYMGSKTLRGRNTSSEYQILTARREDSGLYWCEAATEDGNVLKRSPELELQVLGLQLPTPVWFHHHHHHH

B1: H240-G1dE/H240-G1dE/L73 (antibody, human IgG1, kappa)
heavy: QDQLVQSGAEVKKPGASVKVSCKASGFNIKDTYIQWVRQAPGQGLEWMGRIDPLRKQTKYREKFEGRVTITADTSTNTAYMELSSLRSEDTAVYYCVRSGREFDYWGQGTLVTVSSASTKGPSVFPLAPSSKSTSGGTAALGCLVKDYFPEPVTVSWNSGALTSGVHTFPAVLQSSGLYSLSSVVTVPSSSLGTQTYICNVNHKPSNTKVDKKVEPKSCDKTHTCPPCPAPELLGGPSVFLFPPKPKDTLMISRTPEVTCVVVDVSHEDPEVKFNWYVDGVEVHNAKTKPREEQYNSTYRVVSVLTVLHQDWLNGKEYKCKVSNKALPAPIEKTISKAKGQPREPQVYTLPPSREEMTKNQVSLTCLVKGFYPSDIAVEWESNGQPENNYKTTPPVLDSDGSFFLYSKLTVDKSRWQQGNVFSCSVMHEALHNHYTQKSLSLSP
light: DIQMTQSPSSLSASVGDRVTITCRASQDIHKYIAWYQQKPGQAPRLLIQYTSTLQPGVPSRFSGSGSGTDYTFTISSLQPEDIATYYCLQYEQLRTFGGGTKVEIKRTVAAPSVFIFPPSDEQLKSGTASVVCLLNNFYPREAKVQWKVDNALQSGNSQESVTEQDSKDSTYSLSSTLTLSKADYEKHKVYACEVTHQGLSSPVTKSFNRGEC
notes: anti-EREG antibody with constant regions derived from human natural IgG1; also called IgG1; naturally occurring IgG1
- Kd (FcγRIIIa [1]): 290 nM
- Kd (FcγRIIIaV): 340 nM

B2: H240-Kn125/H240-Hl076-ma1/L73 (antibody, human IgG1, kappa)
heavy 1: QDQLVQSGAEVKKPGASVKVSCKASGFNIKDTYIQWVRQAPGQGLEWMGRIDPLRKQTKYREKFEGRVTITADTSTNTAYMELSSLRSEDTAVYYCVRSGREFDYWGQGTLVTVSSASTKGPSVFPLAPSSKSTSGGTAALGCLVKDYFPEPVTVSWNSGALTSGVHTFPAVLQSSGLYSLSSVVTVPSSSLGTQTYICNVNHKPSNTKVDKKVEPKSCDKTHTCPPCPAPELLGGPSVFLFPPKPKDTLMISRTPEVTCVVVDVSGCRGDCLEPEVKFNWYVDGVEVHNAKTKPREEQYNSTYRVVSVLTVLHQDWLNGKEYKCKVSNDALPMPIEETISKAKGQPREPQVYTLPPSRCELTKNQVSLSCAVKGFYPSDIAVEWESNGQPENNYKTTPPVLDSDGSFFLVSKLTVDKSRWQQGNVFSCSVMHEALHNHYTQKSLSLSP
heavy 2: QDQLVQSGAEVKKPGASVKVSCKASGFNIKDTYIQWVRQAPGQGLEWMGRIDPLRKQTKYREKFEGRVTITADTSTNTAYMELSSLRSEDTAVYYCVRSGREFDYWGQGTLVTVSSASTKGPSVFPLAPSSKSTSGGTAALGCLVKDYFPEPVTVSWNSGALTSGVHTFPAVLQSSGLYSLSSVVTVPSSSLGTQTYICNVNHKPSNTKVDKKVEPKSCDKTHTCPPCPAPEYQWGPMVFLFPPKPKDTLMISRTPEVTCVVVDVSDEEPEVKFNWYVDGVEVHNAKTKPREEQYNATYRVVSVLTVLHQDWLNGKEYKCKVSNKALPAPIEKTISKAKGQPREPQVCTLPPSRDELTKNQVSLWCLVKGFYPSDIAVEWESNGQPENNYKTTPPVLDSDGSFFLYSKLTVDKSRWQQGNVFSCSVMHEALHNHYTQKSLSLSP
light: DIQMTQSPSSLSASVGDRVTITCRASQDIHKYIAWYQQKPGQAPRLLIQYTSTLQPGVPSRFSGSGSGTDYTFTISSLQPEDIATYYCLQYEQLRTFGGGTKVEIKRTVAAPSVFIFPPSDEQLKSGTASVVCLLNNFYPREAKVQWKVDNALQSGNSQESVTEQDSKDSTYSLSSTLTLSKADYEKHKVYACEVTHQGLSSPVTKSFNRGEC
notes: heterodimerized anti-EREG antibody with the RGD peptide inserted in a loop region of the H240-Hl076 chain; also called H240-Kn125/H240-HI076-ma1/L73
- Kd (FcγRIIIa [1]): 2.1 nM

B3: H240-Kn125-CD/H240-Hl076/L73 (antibody, human IgG1, kappa)
heavy 1: QDQLVQSGAEVKKPGASVKVSCKASGFNIKDTYIQWVRQAPGQGLEWMGRIDPLRKQTKYREKFEGRVTITADTSTNTAYMELSSLRSEDTAVYYCVRSGREFDYWGQGTLVTVSSASTKGPSVFPLAPSSKSTSGGTAALGCLVKDYFPEPVTVSWNSGALTSGVHTFPAVLQSSGLYSLSSVVTVPSSSLGTQTYICNVNHKPSNTKVDKKVEPKSCDKTHTCPPCPAPELLGGPSVFLFPPKPKDTLMISRTPEVTCVVVDVSHEEPEVKFNWYVDGVEVHNAKTKPREEQYNSTYRVVSVLTVLHQDWLNGKEYKCKVSNDALPMPIEETISKAKGQPREPQVYTLPPSRCELTKNQVSLSCAVKGFYPSDIAVEWESNGQPENNYKTTPPVLDSDGSFFLVSKLTVDKSRWQQGNVFSCSVMHEALHNHYTQKSLSLSP
heavy 2: QDQLVQSGAEVKKPGASVKVSCKASGFNIKDTYIQWVRQAPGQGLEWMGRIDPLRKQTKYREKFEGRVTITADTSTNTAYMELSSLRSEDTAVYYCVRSGREFDYWGQGTLVTVSSASTKGPSVFPLAPSSKSTSGGTAALGCLVKDYFPEPVTVSWNSGALTSGVHTFPAVLQSSGLYSLSSVVTVPSSSLGTQTYICNVNHKPSNTKVDKKVEPKSCDKTHTCPPCPAPEYQWGPMVFLFPPKPKDTLMISRTPEVTCVVVDVSDEEPEVKFNWYVDGVEVHNAKTKPREEQYNATYRVVSVLTVLHQDWLNGKEYKCKVSNKALPAPIEKTISKAKGQPREPQVCTLPPSRDELTKNQVSLWCLVKGFYPSDIAVEWESGCRGDCLPENNYKTTPPVLDSDGSFFLYSKLTVDKSRWQQGNVFSCSVMHEALHNHYTQKSLSLSP
light: DIQMTQSPSSLSASVGDRVTITCRASQDIHKYIAWYQQKPGQAPRLLIQYTSTLQPGVPSRFSGSGSGTDYTFTISSLQPEDIATYYCLQYEQLRTFGGGTKVEIKRTVAAPSVFIFPPSDEQLKSGTASVVCLLNNFYPREAKVQWKVDNALQSGNSQESVTEQDSKDSTYSLSSTLTLSKADYEKHKVYACEVTHQGLSSPVTKSFNRGEC
notes: heterodimerized anti-EREG antibody with the RGD peptide inserted in a CH3 region (control); also called H240-Kn125-CD/H240-HI076/L73
- Kd (FcγRIIIa [1]): 0.85 nM

B6: GpH7-A5/GpH7-B3 variant A327_01G/GpL16-k0 (antibody, human IgG1, kappa)
heavy 1: not shown
heavy 2: not shown
light: DIVMTQSPLSLPVTPGEPASISCQASESLVHSNRNTYLHWYLQKPGQSPQLLIYKVSNRFSGVPDRFSGSGSGTDFTLKISRVEAEDVGVYYCSQNTHVPPTFGQGTKVEIERTVAAPSVFIFPPSDEQLKSGTASVVCLLNNFYPREAKVQWKVDNALQSGNSQESVTEQDSKDSTYSLSSTLTLSKADYEKHKVYACEVTHQGLSSPVTKSFNRGEC
notes: He Ab: heterodimerized IgG1, one H chain mutated
- He/Con 2aR (FcγRIIa(R)): 126%
- He/Con 2b (FcγRIIb): 144%
- He/Con 2aH (FcγRIIa(H)): 115%
- He/Con 3a (FcγRIIIa [2]): 74.4%
- He/Con 1a (FcγRIa): 101%

Second part, the binder after the results:

- Kd (FcγRIIIa [1]): 160 nM
B4: H240-Kn125-ma1/H240-Hl076/L73 (antibody, human IgG1, kappa)
heavy 1: QDQLVQSGAEVKKPGASVKVSCKASGFNIKDTYIQWVRQAPGQGLEWMGRIDPLRKQTKYREKFEGRVTITADTSTNTAYMELSSLRSEDTAVYYCVRSGREFDYWGQGTLVTVSSASTKGPSVFPLAPSSKSTSGGTAALGCLVKDYFPEPVTVSWNSGALTSGVHTFPAVLQSSGLYSLSSVVTVPSSSLGTQTYICNVNHKPSNTKVDKKVEPKSCDKTHTCPPCPAPELLGGPSVFLFPPKPKDTLMISRTPEVTCVVVDVSHEEPEVKFNWYVDGVEVHNAKTKPREEQYNSTYRVVSVLTVLHQDWLNGKEYKCKVSNDALPMPIEETISKAKGQPREPQVYTLPPSRCELTKNQVSLSCAVKGFYPSDIAVEWESNGQPENNYKTTPPVLDSDGSFFLVSKLTVDKSRWQQGNVFSCSVMHEALHNHYTQKSLSLSP
heavy 2: QDQLVQSGAEVKKPGASVKVSCKASGFNIKDTYIQWVRQAPGQGLEWMGRIDPLRKQTKYREKFEGRVTITADTSTNTAYMELSSLRSEDTAVYYCVRSGREFDYWGQGTLVTVSSASTKGPSVFPLAPSSKSTSGGTAALGCLVKDYFPEPVTVSWNSGALTSGVHTFPAVLQSSGLYSLSSVVTVPSSSLGTQTYICNVNHKPSNTKVDKKVEPKSCDKTHTCPPCPAPEYQWGPMVFLFPPKPKDTLMISRTPEVTCVVVDVSGCRGDCLEPEVKFNWYVDGVEVHNAKTKPREEQYNATYRVVSVLTVLHQDWLNGKEYKCKVSNKALPAPIEKTISKAKGQPREPQVCTLPPSRDELTKNQVSLWCLVKGFYPSDIAVEWESNGQPENNYKTTPPVLDSDGSFFLYSKLTVDKSRWQQGNVFSCSVMHEALHNHYTQKSLSLSP
light: DIQMTQSPSSLSASVGDRVTITCRASQDIHKYIAWYQQKPGQAPRLLIQYTSTLQPGVPSRFSGSGSGTDYTFTISSLQPEDIATYYCLQYEQLRTFGGGTKVEIKRTVAAPSVFIFPPSDEQLKSGTASVVCLLNNFYPREAKVQWKVDNALQSGNSQESVTEQDSKDSTYSLSSTLTLSKADYEKHKVYACEVTHQGLSSPVTKSFNRGEC
notes: heterodimerized anti-EREG antibody with the RGD peptide inserted in a loop region of the H240-Kn125 chain; also called H240-Kn125-ma1/H240-HI076/L73

- Kd (FcγRIIIa [1]): 310 nM
B5: H240-G1d-CD/H240-G1d-CD/L73 (antibody, human IgG1, kappa)
heavy: QDQLVQSGAEVKKPGASVKVSCKASGFNIKDTYIQWVRQAPGQGLEWMGRIDPLRKQTKYREKFEGRVTITADTSTNTAYMELSSLRSEDTAVYYCVRSGREFDYWGQGTLVTVSSASTKGPSVFPLAPSSKSTSGGTAALGCLVKDYFPEPVTVSWNSGALTSGVHTFPAVLQSSGLYSLSSVVTVPSSSLGTQTYICNVNHKPSNTKVDKKVEPKSCDKTHTCPPCPAPELLGGPSVFLFPPKPKDTLMISRTPEVTCVVVDVSHEDPEVKFNWYVDGVEVHNAKTKPREEQYNSTYRVVSVLTVLHQDWLNGKEYKCKVSNKALPAPIEKTISKAKGQPREPQVYTLPPSRDELTKNQVSLTCLVKGFYPSDIAVEWESGCRGDCLPENNYKTTPPVLDSDGSFFLYSKLTVDKSRWQQGNVFSCSVMHEALHNHYTQKSLSLSP
light: DIQMTQSPSSLSASVGDRVTITCRASQDIHKYIAWYQQKPGQAPRLLIQYTSTLQPGVPSRFSGSGSGTDYTFTISSLQPEDIATYYCLQYEQLRTFGGGTKVEIKRTVAAPSVFIFPPSDEQLKSGTASVVCLLNNFYPREAKVQWKVDNALQSGNSQESVTEQDSKDSTYSLSSTLTLSKADYEKHKVYACEVTHQGLSSPVTKSFNRGEC
notes: anti-EREG antibody with the RGD peptide inserted in the CH3 regions (control)

- He/Con 2aR (FcγRIIa(R)): 136%
- He/Con 2b (FcγRIIb): 215%
- He/Con 2aH (FcγRIIa(H)): 65.7%
- He/Con 3a (FcγRIIIa [2]): 54.9%
- He/Con 1a (FcγRIa): 104%
B7: GpH7-A5/GpH7-B3 variant L328_10E/GpL16-k0 (antibody, human IgG1, kappa)
heavy 1: not shown
heavy 2: not shown
light: DIVMTQSPLSLPVTPGEPASISCQASESLVHSNRNTYLHWYLQKPGQSPQLLIYKVSNRFSGVPDRFSGSGSGTDFTLKISRVEAEDVGVYYCSQNTHVPPTFGQGTKVEIERTVAAPSVFIFPPSDEQLKSGTASVVCLLNNFYPREAKVQWKVDNALQSGNSQESVTEQDSKDSTYSLSSTLTLSKADYEKHKVYACEVTHQGLSSPVTKSFNRGEC
notes: as for B6
